Source: the nanobody polyreactivity screen of Harvey et al. (2022)

Assay: yeast display, Sf9 membrane polyspecificity reagent, FACS + sequencing; frameworks hold sequencing errors
Procedure, shortened: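 A synthetic nanobody library was expressed on Saccharomyces cerevisiae BJ5465 by galactose induction for 36–48 hours. The library was stained for 1 hour at 4 °C with 10% biotinylated, detergent-solubilized Sf9 membrane reagent and enriched with streptavidin microbeads before FACS. Low and high (top ~1%) gates were set on anti-HA fluorescence for expression and streptavidin fluorescence for reagent binding, and each polyreactivity label reflects the gate of origin.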

For “HVQLVESGGGLVQAGGSLRLSCAASGRTFGAYAMGWYRQAPGKERELVAAISKSGGRTYYADSVKGRFTISRDNAKNTVYLQMNSLKPEDSAVYYCNARGFRGEYDYWGQGTQVTVSS”, which “polyreactivity (PSR sort gate)” value is on record?
The value was “high polyreactivity”.

With “QVQLVESGGGLVQAGGSLRLICAASGFIFTSYTMGWYRQAPGKERELVAAISRSGGRTYYADSVKGRFTISRDNAKNTVYLQMNRLKPVDTAVYYCNAGYPASYYYYGFDYWGQGTQVTVSS” as the sequence, how does the “polyreactivity (PSR sort gate)” value read?
Its value is “high polyreactivity”.

For “QVQLVESGGGLVQAGGSLRLSCAASGYTSYRYAMGWYRQAPGKERELVAAINWSGSSTYYADSVKGRFTISRDYAKNTVYLQMNSLKPEDTAVYYCAARRYRSPIGGYDYWGQGTQVTVSS”, which “polyreactivity (PSR sort gate)” value is on record?
Its value is “high polyreactivity”.

Which “polyreactivity (PSR sort gate)” value does the source give for “QVQLVESGGGLVQAGGSLRLSFAASGRTFYGYAMGWYRQAPGKERELVASIRQSAGRTYYADSVKGRFTISRDISKNTVYLVMNSLKPEDSAVYYCAASIFLRSFYQQGNYWGQGTHVTVSS” here?
The value was “high polyreactivity”.

For “QVQLVESGGGLVQAGGSLRLSCAASGFIFDNNAMGWYRQAPGKERELVADISESGGSTYYADSVKGRFTISRDNAKNTVYLQMNSLKPEDTAVYYCNADIESWYCEFDYWGQGTQVTVSS”, which “polyreactivity (PSR sort gate)” value is on record?
The value was “low polyreactivity”.

With “QVQLVESGGGLVQAGGSLRLSCAASGRTFYSYAMGWYRQAPGKERELVAAITSDGGTYYADSVKGRFTISRDNAKNTVYLQMNSLKPEDTAVYYCNAVGGWVTHWLLREGDYWGQGTQVTVSS” as the sequence, how does the “polyreactivity (PSR sort gate)” value read?
The value was “low polyreactivity”.

With “QDQLVESGGGLFQAGGSLRLSCAASGSIFGHYAMGWYRQAPGKERELVAAISWRGGSTYYADSVKGRFTISRDNAKNTVYIQMNSLKPEDTAVYYCAADRWDKAYDYWGQVTQVTVSS” as the sequence, how does the “polyreactivity (PSR sort gate)” value read?
The value was “low polyreactivity”.

Which “polyreactivity (PSR sort gate)” value does the source give for “QVQLVESGGGLVQAGGSLRLSCAASGRTFSWYAMGWYRQAPGKERELVAAITSDGSPYYADSVKGRFTISRDNAKNTVYLQMNSLKPEDTAVYYCAADTVYRSYYWGQGTQVTVSS” here?
Its value is “low polyreactivity”.

Which “polyreactivity (PSR sort gate)” value does the source give for “QVQLVESGGGLVQAGGSLRLSCAASGLIFSYNAMGWYRQAPGKERELVATISYSGGTTYYADSVKGRFTISRDNAKNTVYLQMNSLKPEDTAVYYCAARTLYSPGRPWKWYNYGRYGYWGQGTQVTVSS” here?
The value was “high polyreactivity”.

With “QVQLVESGGGLVQAGGSLRLSCAASGLIFGWNARGWYRQAPGKERELVAAINSGGITNYADSVKGRFTISRDNAKNTVYFQMNWLKPEDTAVYYCAADVVQYGLDWYGEEYESWGQGTQVTVSS” as the sequence, how does the “polyreactivity (PSR sort gate)” value read?
Its value is “low polyreactivity”.

With “QVQLVETGGGLVQAGGSLRLSCAASGRIFVFYTKGWYRQAPGKERELVARITGGGSTSYADSVKGRFTISRDNAKNTVYLQMNSLKPEDTAVYYCAAVTRRRYYGHIYGYWGQGTQVTVSS” as the sequence, how does the “polyreactivity (PSR sort gate)” value read?
The value was “high polyreactivity”.

With “QDQLVESGGGIVQAGGSIRLSCAASGNTFGWYAMGWYRKAPGKERELVASISSSGSTNYADSVKGRFTISRDNAKNTVYLQMNSLKPEDTAVYYSNADLTQYLGPVYEYVYWGQGTQVTVSS” as the sequence, how does the “polyreactivity (PSR sort gate)” value read?
The value was “low polyreactivity”.

Which “polyreactivity (PSR sort gate)” value does the source give for “QVQLVESGGGLVQAGGSLRLSCAASGRIFGVNAMGWYRQAPGKERELVAVISSGGSTYYADSVKGRFTISRDNAKNTVYLQMNSLKPEDTAVYYCNAVVGRWFPYNLSDYWGQGTQVTVSS” here?
The value was “low polyreactivity”.

Which “polyreactivity (PSR sort gate)” value does the source give for “QVQLVESGGGLVQAGGSLRLSCAASGSTFYTNAMGWYRQAPGKERELVAAINRSGGRTYYADSVKGRFTISRDNAKNTVYLQMISLKPEDTAVYYCAARYPLRISTDTARDYYWGQGTQVTVSS” here?
The value was “low polyreactivity”.

With “QVQLVESGGGLVQAGGSLRLSCAASGRTFRLYAMGWYRQAPGKERELVAAISGSGGSTYYADSVKGRFTISRDNAKNTVYLQMNSLKPEDTAVYYCATAVHTAILNYWGQGTQVTVSS” as the sequence, how does the “polyreactivity (PSR sort gate)” value read?
The value was “low polyreactivity”.

For “QVQLVESGGGLVQAGGSLRLSCAASGSTFGRNAMGWYRQAPGKERELVASITSRGTSTYADSVKGRFTISRDNAKNTVYLQMNSLKPEDTAVYYCAAGVISYRRRSYYYWGQGTQVTVSS”, which “polyreactivity (PSR sort gate)” value is on record?
Its value is “high polyreactivity”.

Which “polyreactivity (PSR sort gate)” value does the source give for “QVQLVESGGGLVQAGGSLRLSCAASGSIFTAYAMGWYRQAPGKERELVAAIDDSGDSTYYADSVKGRFTISRDNAKNTVYLQMNSLKPEDTAVYYCKAEYRVNKEYDYWGQGTQVTVSS” here?
Its value is “low polyreactivity”.

With “QVQLVESGGGLVQAGGSLRLSCAASGRTFPVYAMGWYRQAPGKEREFVAAISYRTGSTYYADSVKGRFTISRDHAKNTVYLQMNSLKPEDTAVYYCAARVSWYYTFYSWGQGTQVTVSS” as the sequence, how does the “polyreactivity (PSR sort gate)” value read?
Its value is “high polyreactivity”.

With “QVQLVESGGGLVQAGGSLRLSCAASGSIFYYNGMGWYRHAPGKERELVASISRGGGTNYADSVKGRFTISRDNAKNTVYLQMNSLKPEDTAVYYCNARYPRSSPFGYWGLGTQVTVSS” as the sequence, how does the “polyreactivity (PSR sort gate)” value read?
The value was “high polyreactivity”.

Which “polyreactivity (PSR sort gate)” value does the source give for “QVQLVESGGRLVQAGGSLRLSSAASGRTFTSYAMGWYRQSPGKERELVAAISRRGGSTYYADSVKGRFTISRDNAKNTVYLQMNSLKPEDTAVYYCNKATRYYLVELNYWGQGTQVTVSS” here?
The value was “high polyreactivity”.

For “QVQLVESGGGLVQAGGSLRLSCAASGITFGSYAMGGYRQAPGKERELVAAITRRGDNTYYADSVKGRFTISRDNAKNTVYLQMNSLKPEDTAVYYCNAAKGGRYPDYDYWGQGTQVTVSS”, which “polyreactivity (PSR sort gate)” value is on record?
The value was “high polyreactivity”.

For “QVQLVESGGGLVQAGGSPRLSCADSGGIFGIYAMGWYRPAPGKERELVAAIRRGGSTSYADSVKGRFTISRDNAMNTVYLQMNSLKPEDTAVYYCAAGSYYRYGYWGQGTQVTVSS”, which “polyreactivity (PSR sort gate)” value is on record?
Its value is “high polyreactivity”.

With “QVQLVESGGGLVQAGGSLRLIFAASGRTFVLNAMRWYRQAPGKEREFVAAISWGGVRTYYADSVKGRFTISRDNAKNTVYLQMNSLKPEDTAVYYCATCGSRYRRYDYWGQGTQVTVSS” as the sequence, how does the “polyreactivity (PSR sort gate)” value read?
Its value is “high polyreactivity”.

For “QVQLVESWGGLVQAGGSLRLSCAASGSIFDVNAMGWYRQAPGKERELVAAISDSGGSTYYADSVKGRFTISRDNAKNTVYLQMNSLKPEDTAVYYCNADWSWYNYYDFDYWGQGTQVTVSS”, which “polyreactivity (PSR sort gate)” value is on record?
Its value is “low polyreactivity”.

For “QVQLVESGGGLVQAGGSLRLSCAASGSIFSLYAMGWYRQAPGKEWELVAAISRGGSTNYADSVKGRFTISRDNAKNTVYLQMNSLKPEDTAVYYCNAGFGVRRKHITFYTWYDYWGQGTQVTVSS”, which “polyreactivity (PSR sort gate)” value is on record?
Its value is “low polyreactivity”.

Which “polyreactivity (PSR sort gate)” value does the source give for “QVQLVESGGGLVQAGGSLRLSCAASGFTFRYYVMGWYRQAPGKEGELVAAISWSGGTTYYADSVKGRFTISRDNAKNTVYLQMNSLKPEDTAVYYCAADVYLNRRQRMYFWGQGSQVTVSS” here?
The value was “high polyreactivity”.

With “QVQLVESGGGLVQAGGSLRLSCAASGRIFRANAMGWYRQAPGKERELVAAISYRGGSTYYADSVKGRFTISRDNAKNTVYLQMNSLKPEDTAVYYCAADSDRSVWIYGYWGQGTQVTVSS” as the sequence, how does the “polyreactivity (PSR sort gate)” value read?
The value was “low polyreactivity”.

With “QVQLQECGGGLVQAGGRLRLSCAASGNIFDADIMGWYRQAPGKERELVASVTDGGSTNYADSVKGRFTISRDNAKNTVYLQMISLTPEDTAVYYCAAIVYPDILTYFDYDYDYFYWGQGTQVTVGS” as the sequence, how does the “polyreactivity (PSR sort gate)” value read?
Its value is “low polyreactivity”.

For “QVQLVESVGGLVQAGGSLRLSCAASGRPSNRYAMGWYRQAPGKERELVAAISGRGGSTYYADSVKGRFTISRDNAKNTVYLQMNSLKPEDTAVYYCAKQWYVAKISYDYWGQGTQVTVSS”, which “polyreactivity (PSR sort gate)” value is on record?
Its value is “high polyreactivity”.

With “QVQLVESGGGLVQAGGSLRLSCAASGFTFRYYAMGWYRQAPGKVRELVASITGGGRTYYADSVKGRFTISRDNAKNTVYLQMNSLKPEDTAVYYCATLVAYRLGSGYDSWGQGTQVTVSS” as the sequence, how does the “polyreactivity (PSR sort gate)” value read?
The value was “high polyreactivity”.

For “QVQLVESGGGLVQAGGSLRLSCAASGGTFPQYAKGWYRQAPGKEREFVADITTRGGTTYYADSVKGRFTISRDNAKNTVYLQMNSLKPEENAVYYCAADNPADWWGLDYWGQGTQVTVSS”, which “polyreactivity (PSR sort gate)” value is on record?
The value was “low polyreactivity”.

Which “polyreactivity (PSR sort gate)” value does the source give for “QVQLVESGGGLVQAGGSLRLSCAASGFTFYRYAMGWYRQAPGKERELVATISASGGSTYYADSVKGRFTISRDNAKNTVYLQMISLKPEDTAVYYCAVRTIWRFRYDYWGQGTQVTVSS” here?
The value was “high polyreactivity”.

Which “polyreactivity (PSR sort gate)” value does the source give for “QVQLVDSGGGLVQAGGSLRLSCAASGRIFRRYTMGWYRQAPGKERELVAAISSGGGTNYADSVKGRFSISRDNAKNTVYLQMNSLKPEDTAVYYCNARSWLSRGYGYWGQGTQVTVSS” here?
Its value is “high polyreactivity”.

For “QVQLVESGGGLVQAGGSLRLSCAASGFTFLYYDMGWYRQAPGKERELVAAITNDDSTYYADSVKGRFTISRDNAKNTVYLQMNSLKPEDTAVYYCNADVWYYTPYDYWGQVTQVTVSS”, which “polyreactivity (PSR sort gate)” value is on record?
The value was “high polyreactivity”.

With “QVQLVESRGGLVQAGGSLRLSCAASGYTFQRYAMGCYRQAPGKEREMVAAISWSSGTTYYADSVKGRFTISRDNAKNTVYLQMNSLKPEDTAVYYCAAAGRQSGGRFYYWGQGTQVTVSS” as the sequence, how does the “polyreactivity (PSR sort gate)” value read?
Its value is “high polyreactivity”.

With “QVQLVESGGGLVQAGGSLRLSCAASGIIFQYYVMGWYRQAPGKERELVAAIDKSGGSTYYADSVKGRFTISRDNAKNTVYLQMNSLKPEDTAVYYCAATSYAHKYYGYFGAIKYEYWGQGTQVTVSS” as the sequence, how does the “polyreactivity (PSR sort gate)” value read?
The value was “low polyreactivity”.

For “QVQLEESGGGLVQAGGRLRLSCAASGSIFYVYAMGWYRQAPGKERELVASINKSGGSTYFADSVKGRFTISRDNAKNTVYLQMNSLKPEDTAVYYCAARTGWPRVGFQYPAHVGFDYWGQGTQVTVSS”, which “polyreactivity (PSR sort gate)” value is on record?
Its value is “low polyreactivity”.

Which “polyreactivity (PSR sort gate)” value does the source give for “QDQHVESGGGLVQAGGSLRLSCAASGSIFNYYAMGWYRQAPGKEREFVAAISRSGGSTYYADSEKGRFTISRDNAKNTVYLEMNSLKPEDTAVYYCNAYSYSEAGDDGDYWGQGTQVTVSS” here?
Its value is “low polyreactivity”.

Which “polyreactivity (PSR sort gate)” value does the source give for “QVQLVESGGGLVQAGGSLRLSCAASGRTFLYNTMGWYRQAPGKERELVAVISIDGGGTYADSVKGRFTISRDNAKNNVYLQMNSLKPEDTAVYDCAVDALCITYGYWGQGTQVTVSS” here?
The value was “low polyreactivity”.

Which “polyreactivity (PSR sort gate)” value does the source give for “QVQLVESGGGLVQEGGSLRLRCAASGRTFPINAMGWYRQAPGKERELVASIRWTDGTTYYADSVKGRFTISRDTAKNTVYLQMNSLKPEDTAVYYCAADAEGSASKYVYWGQGTQVTVSS” here?
The value was “low polyreactivity”.

With “QVQLVESGGGLVQAGGSLRLSCAASGRIFYSYAMGWYRQAPGKEREFVAVISSDGGSTYYADSVKGRFTISRDNAKNTVYLQMNSLKPEDTAVYYCNAEIDYDVYEYDYWGQGTQVTVSS” as the sequence, how does the “polyreactivity (PSR sort gate)” value read?
The value was “low polyreactivity”.

With “QVQLVESGGGLVQAGGSLRLSSAASGRTFWVYAMGCYRQAPGKESELVAAISRSGVSTYYADSVMGRFTISRDNAKNTVYLQMNSLKPEDTAVYYCAAPLIYTPLKYHYWGQGTQVTVSS” as the sequence, how does the “polyreactivity (PSR sort gate)” value read?
Its value is “low polyreactivity”.

Which “polyreactivity (PSR sort gate)” value does the source give for “QVQLVESGGGLVQAGGSLRLSCAASGYILQINAMGWYRQAPGKERELVAAISISGGNTYYADSVKGRFTISRDNAKNTVYLQMNSLKPEDTAVYYCNAGGPLQPYDYWGQGTQVTVSS” here?
Its value is “low polyreactivity”.
